Measurements reported in patent publication US20240209092A1 (ADAGENE, published 2024).
Positions count from the first letter of the chain named.

T1: recombinant rat CTLA4 protein (extracellular domain) (rat, UniProt Q62859 36-161)
T1 sequence: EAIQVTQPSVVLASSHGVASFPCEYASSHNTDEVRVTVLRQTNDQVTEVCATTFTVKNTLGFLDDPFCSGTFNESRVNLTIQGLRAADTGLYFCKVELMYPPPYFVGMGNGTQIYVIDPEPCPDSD

T2: recombinant human CTLA4 protein (extracellular domain) (human, UniProt P16410 36-161)
T2 construct: extracellular domain
T2 sequence (looked up): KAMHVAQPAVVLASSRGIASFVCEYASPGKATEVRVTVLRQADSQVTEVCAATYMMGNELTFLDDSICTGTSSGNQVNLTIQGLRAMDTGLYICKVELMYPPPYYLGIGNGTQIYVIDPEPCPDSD

T3: recombinant cynomolgus monkey CTLA4 protein (extracellular domain) (cynomolgus monkey, UniProt G7PL88 36-161)
T3 sequence: T2 sequence (looked up) with S14N, I18T, L106M

T4: human CTLA4 expressed on cells (human, UniProt P16410 36-223)
T4 sequence (looked up): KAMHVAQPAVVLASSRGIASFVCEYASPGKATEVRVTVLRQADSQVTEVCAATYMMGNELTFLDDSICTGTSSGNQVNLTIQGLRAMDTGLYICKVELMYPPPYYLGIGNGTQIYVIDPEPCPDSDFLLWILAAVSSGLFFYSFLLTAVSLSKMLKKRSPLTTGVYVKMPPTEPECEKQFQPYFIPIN

B1: activated TY22404 by condition 2 (antibody)
heavy: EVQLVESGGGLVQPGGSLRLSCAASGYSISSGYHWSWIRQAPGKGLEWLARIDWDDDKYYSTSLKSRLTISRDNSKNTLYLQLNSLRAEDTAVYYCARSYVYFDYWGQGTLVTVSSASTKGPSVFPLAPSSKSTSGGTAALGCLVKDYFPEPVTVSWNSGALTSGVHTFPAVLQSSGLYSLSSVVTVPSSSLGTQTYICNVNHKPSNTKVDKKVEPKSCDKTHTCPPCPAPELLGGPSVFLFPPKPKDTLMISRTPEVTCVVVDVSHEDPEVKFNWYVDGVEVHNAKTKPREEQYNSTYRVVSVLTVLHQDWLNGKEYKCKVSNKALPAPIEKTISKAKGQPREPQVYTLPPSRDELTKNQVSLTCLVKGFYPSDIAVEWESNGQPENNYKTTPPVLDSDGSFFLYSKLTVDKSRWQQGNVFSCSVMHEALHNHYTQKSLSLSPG
light: DIQLTQSPSSLSASVGDRVTITCRASQSVRGRFLAWYQQKPGKAPKLLIYDASNRATGIPSRFSGSGSGTDFTLTISSLQPEDFATYYCQQSSSWPPTFGQGTKVEIKRTVAAPSVFIFPPSDEQLKSGTASVVCLLNNFYPREAKVQWKVDNALQSGNSQESVTEQDSKDSTYSLSSTLTLSKADYEKHKVYACEVTHQGLSSPVTKSFNRGEC
notes: IgG1; also called cleaved TY22404; not shown: remnant of the cleavable linker left after cleavage
B2: activated TY22404 by condition 1 (antibody)
heavy: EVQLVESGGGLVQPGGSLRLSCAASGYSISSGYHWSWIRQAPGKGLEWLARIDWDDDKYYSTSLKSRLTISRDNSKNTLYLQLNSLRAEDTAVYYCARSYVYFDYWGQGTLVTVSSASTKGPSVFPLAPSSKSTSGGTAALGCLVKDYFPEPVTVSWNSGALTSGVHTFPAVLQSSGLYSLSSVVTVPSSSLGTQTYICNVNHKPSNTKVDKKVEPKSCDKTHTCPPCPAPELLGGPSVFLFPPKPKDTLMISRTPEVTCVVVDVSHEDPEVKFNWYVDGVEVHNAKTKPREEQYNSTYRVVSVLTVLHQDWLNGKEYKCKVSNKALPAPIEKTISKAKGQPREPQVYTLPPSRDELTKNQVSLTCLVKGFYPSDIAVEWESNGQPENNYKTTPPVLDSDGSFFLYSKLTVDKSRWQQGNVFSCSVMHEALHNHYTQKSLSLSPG
light: B1 light
notes: as for B1
B3: TY22404 (masked, masking peptide intact) (antibody)
heavy: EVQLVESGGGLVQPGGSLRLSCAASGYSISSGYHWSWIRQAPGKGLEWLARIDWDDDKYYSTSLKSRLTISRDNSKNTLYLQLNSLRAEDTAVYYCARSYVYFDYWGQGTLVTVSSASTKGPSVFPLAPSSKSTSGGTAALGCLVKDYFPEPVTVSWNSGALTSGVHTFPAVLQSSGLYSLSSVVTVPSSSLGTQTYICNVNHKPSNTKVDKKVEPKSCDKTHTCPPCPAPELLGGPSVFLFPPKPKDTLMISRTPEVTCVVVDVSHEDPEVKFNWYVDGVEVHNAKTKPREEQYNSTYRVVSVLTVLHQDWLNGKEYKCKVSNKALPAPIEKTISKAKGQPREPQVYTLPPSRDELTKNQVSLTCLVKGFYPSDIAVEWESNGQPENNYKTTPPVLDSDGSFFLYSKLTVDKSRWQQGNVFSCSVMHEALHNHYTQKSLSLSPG
light: EVGSYPNPSSDCVPYYYACAYSGRSAGGGGTPLGLAGSGGSDIQLTQSPSSLSASVGDRVTITCRASQSVRGRFLAWYQQKPGKAPKLLIYDASNRATGIPSRFSGSGSGTDFTLTISSLQPEDFATYYCQQSSSWPPTFGQGTKVEIKRTVAAPSVFIFPPSDEQLKSGTASVVCLLNNFYPREAKVQWKVDNALQSGNSQESVTEQDSKDSTYSLSSTLTLSKADYEKHKVYACEVTHQGLSSPVTKSFNRGEC
notes: It has the VH and VL of TY21580, with the mask/linker at the N-terminus of the light chain; also called masked TY22404; masking peptide-intact TY22404

Experiments:
[1] = molecular target: T1, recombinant rat CTLA4 protein …; experiment: ELISA, CTLA4 extracellular domain coated, HRP anti-human IgG (Fab specific) detection
[2] = molecular target: T2, recombinant human CTLA4 protein …; experiment: as above
[3] = molecular target: T5, recombinant mouse CTLA4 protein (extracellular domain) (mouse, UniProt P09793 36-161); experiment: as above
T5 construct: extracellular domain

[4] = molecular target: T3, recombinant cynomolgus monkey CTLA4 …; experiment: as above
[5] = molecular target: T1, recombinant rat CTLA4 protein …; experiment: ELISA, recombinant rat CTLA4 extracellular domain coated on the plate, captured antibody detected with HRP-labeled anti-human IgG (Fab specific), absorbance at 450 nm
[6] = molecular target: T4, human CTLA4 expressed on cells; experiment: cell-based or functional assay
[7] = molecular target: T1, recombinant rat CTLA4 protein …; experiment: ELISA, CTLA4 extracellular domain coated; reference masked TY22404
[8] = molecular target: T2, recombinant human CTLA4 protein …; experiment: as above
[9] = molecular target: T5, recombinant mouse CTLA4 protein …; experiment: as above
[10] = molecular target: T3, recombinant cynomolgus monkey CTLA4 …; experiment: as above
[11] = molecular target: T5, recombinant mouse CTLA4 protein …; experiment: ELISA, recombinant mouse CTLA4 extracellular domain coated on the plate, captured antibody detected with HRP-labeled anti-human IgG (Fab specific), absorbance at 450 nm
[12] = molecular target: T2, recombinant human CTLA4 protein …; experiment: ELISA, recombinant human CTLA4 extracellular domain coated on the plate, captured antibody detected with HRP-labeled anti-human IgG (Fab specific), absorbance at 450 nm
[13] = molecular target: T3, recombinant cynomolgus monkey CTLA4 …; experiment: ELISA, recombinant cynomolgus monkey CTLA4 extracellular domain coated on the plate, captured antibody detected with HRP-labeled anti-human IgG (Fab specific), absorbance at 450 nm

| Binder | EC50 [1] | EC50 [2] | EC50 [3] | EC50 [4] | EC50 (read off the curve) [5] | EC50 (read off the curve) [6] | fold increased affinity compared to masked TY22404 [7] | fold increased affinity compared to masked TY22404 [8] | fold increased affinity compared to masked TY22404 [9] | fold increased affinity compared to masked TY22404 [10] | EC50 (read off the curve) [11] | EC50 (read off the curve) [12] | EC50 (read off the curve) [13] |
| --- | --- | --- | --- | --- | --- | --- | --- | --- | --- | --- | --- | --- | --- |
| B1 | ~0.3 nM | ~0.3 nM | ~0.3 nM | ~0.3 nM | ~0.3 nM | ~0.7 nM | > 100 fold | > 250 fold | > 300 fold | ~40 fold | ~0.3 nM | ~0.3 nM | ~0.3 nM |
| B2 | ~0.3 nM | ~0.3 nM | ~0.3 nM | ~0.3 nM | ~0.3 nM | – | > 100 fold | > 250 fold | > 300 fold | ~40 fold | ~0.3 nM | ~0.3 nM | ~0.3 nM |
| B3 | – | – | – | – | ~30 nM | – | – | – | – | – | ~100 nM | ~70 nM | ~10 nM |
